From PMC9569855 (International Journal of Molecular Sciences, 2022)

Target: SARS-CoV-2 wild type RBD (319-541aa) (SARS-CoV-2, UniProt P0DTC2)
Experiment: SPR
Conditions: both partners purified

B1: Bamlanivimab (antibody, V domains shown)
VH: QVQLVQSGAEVKKPGSSVKVSCKASGGTFSNYAISWVRQAPGQGLEWMGRIIPILGIANYAQKFQGRVTITADKSTSTAYMELSSLRSEDTAVYYCARGYYEARHYYYYYAMDVWGQGTAVTVSS
VL: not shown
  Kd: 1.4 nM
